The values below are quoted from earlier work in patent publication US20170128542A1 (Albireo Pharma, Inc., priority 2015, published 2017).

Experiment in data set [1]: not given
This is another data set of the same source.

In the case of glucagon, the “Onset of action after injection” value was 5 to 20 min. For the same substance, the “Glucagon decomposed into degradation products” value in data set [1] (acidic solution (pH 2-4), within 24 hours at 37° C.) was 5-70%. In addition, in data set [1] (aqueous solution, pH 3 or less), the “Aggregation in aqueous solutions of pH 3 or less” value was “aggregate to form a gel within an hour”.
